# Changes are numbered by the printed parent chain. Numbers in names are those of the source. Where “and” joins values, the source holds several entries; their conditions need not be identical. Identical values can stand only once. Ends that are not written are not given here. Peptide text beside a SMILES is read from it. * marks the point of attachment. FITC = O=C1OC2(c3ccc(O)cc3Oc3cc(O)ccc32)c2ccc(NC(=S)*)cc21
# T1: Pex5p-S507/523D, recombinant His6-tagged phospho-mimicking mutant (S. cerevisiae, UniProt P35056 1-612, S507D | S523D)
# T1 sequence: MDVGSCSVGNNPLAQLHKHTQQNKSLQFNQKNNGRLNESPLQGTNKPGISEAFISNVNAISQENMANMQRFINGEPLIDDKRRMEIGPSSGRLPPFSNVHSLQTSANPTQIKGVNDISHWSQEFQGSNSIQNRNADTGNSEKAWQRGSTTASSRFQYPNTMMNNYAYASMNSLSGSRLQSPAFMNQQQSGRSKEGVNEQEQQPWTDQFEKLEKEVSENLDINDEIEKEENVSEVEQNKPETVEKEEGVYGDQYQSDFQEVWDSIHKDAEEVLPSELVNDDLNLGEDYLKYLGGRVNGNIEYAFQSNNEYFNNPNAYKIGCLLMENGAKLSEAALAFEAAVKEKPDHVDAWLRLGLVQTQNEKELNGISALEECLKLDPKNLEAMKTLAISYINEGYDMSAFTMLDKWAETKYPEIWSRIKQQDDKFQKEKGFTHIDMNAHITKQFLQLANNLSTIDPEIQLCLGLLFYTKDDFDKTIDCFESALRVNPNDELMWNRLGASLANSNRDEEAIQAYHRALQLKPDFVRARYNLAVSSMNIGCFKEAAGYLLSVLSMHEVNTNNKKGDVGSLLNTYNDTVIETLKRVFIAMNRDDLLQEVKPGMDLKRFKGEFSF
# T2: Pex5p wildtype, recombinant His6-tagged (HisPex5p) (S. cerevisiae, UniProt P35056 1-612)
# T2 chain: T1 sequence with D507S, D523S
# B1: Pcs60p, peroxisomal oxalyl-CoA synthetase, recombinant (natural protein, S. cerevisiae, UniProt P38137 1-543, looked up)
# chain: MTSAATVTASFNDTFSVSDNVAVIVPETDTQVTYRDLSHMVGHFQTMFTNPNSPLYGAVFRQDTVAISMRNGLEFIVAFLGATMDAKIGAPLNPNYKEKEFNFYLNDLKSKAICVPKGTTKLQSSEILKSASTFGCFIVELAFDATRFRVEYDIYSPEDNYKRVIYRSLNNAKFVNTNPVKFPGFARSSDVALILHTSGTTSTPKTVPLLHLNIVRSTLNIANTYKLTPLDRSYVVMPLFHVHGLIGVLLSTFRTQGSVVVPDGFHPKLFWDQFVKYNCNWFSCVPTISMIMLNMPKPNPFPHIRFIRSCSSALAPATFHKLEKEFNAPVLEAYAMTEASHQMTSNNLPPGKRKPGTVGQPQGVTVVILDDNDNVLPPGKVGEVSIRGENVTLGYANNPKANKENFTKRENYFRTGDQGYFDPEGFLVLTGRIKELINRGGEKISPIELDGIMLSHPKIDEAVAFGVPDDMYGQVVQAAIVLKKGEKMTYEELVNFLKKHLASFKIPTKVYFVDKLPKTATGKIQRRVIAETFAKSSRNKSKL
# notes: Pcs60p, peroxisomal oxalyl-CoA synthetase of S. cerevisiae, a PTS1-protein; GST tag removed with thrombin; native MS mass of the monomer printed as 60.632 kDa; also called wildtype Pcs60p; GSTPcs60p (before cleavage); source: E. coli BL21 RIL (DE3), purified (GSTrap, thrombin cleavage, SEC); not shown: GST, N-terminal, cleaved
# B2: Pex5p wildtype, recombinant His6-tagged (HisPex5p) (natural protein, S. cerevisiae, UniProt P35056 1-612, looked up)
# chain: T1 sequence with D507S, D523S
# notes: Pex5p, PTS1 receptor of Saccharomyces cerevisiae, UniProtKB P35056, full length; No cleavage of the His tag is described; the native MS mass of the monomer is printed as 71.459 kDa; also called Pex5p^WT; source: E. coli BL21 RIL (DE3), purified (Ni-NTA, MonoQ anion exchange, SEC)
# B3: Pex5p-S507/523D, recombinant His6-tagged phospho-mimicking mutant (natural protein, S. cerevisiae, UniProt P35056 1-612, looked up)
# chain: T1 sequence
# notes: Pex5p, PTS1 receptor of Saccharomyces cerevisiae, UniProtKB P35056, full length, with S507D and S523D; No cleavage of the His tag is described; the native MS mass of the monomer is printed as 71.515 kDa; also called Pex5p^2D; Pex5p-S507D/523D; source: E. coli BL21 RIL (DE3), purified (Ni-NTA, MonoQ anion exchange, SEC)
# How the values were obtained:
# Pex5p^2D = molecular target: T3, Pex5p^2D (Saccharomyces cerevisiae, UniProt P35056, S507D/S523D); experiment: biochemical; assay type: binding
# T3 construct: 10 μM full-length Pex5p^WT and Pex5p^2D mutant as a sample in the cell; made in house; host or cells: E. coli BL21 RIL (DE3)
# Excerpt: The elution of proteins was monitored at 280 nm.
# [1] = molecular target: B2; experiment: ITC; MicroCal VP-ITC, 25 °C; 10 µM Pex5p variant in the cell, 100 µM Pcs60p as titration ligand, 30 injections of 10 µl; 50 mM HEPES pH 7.5, 150 mM NaCl; details: both partners purified
# [2] = molecular target: B3; experiment: as above; details: both partners purified
# [3] = molecular target: T1, Pex5p-S507/523D, recombinant …; experiment: ITC; representative single titration
# [4] = molecular target: T2, Pex5p wildtype, recombinant His6-tagged …; experiment: ITC; representative single titration
# [5] = molecular target: B2; experiment: native MS; Pex5p variant (7.5 µM) mixed with Pcs60p (5 µM), 5 min on ice; 200 mM ammonium acetate pH 6.8; collision energy 100 V; details: both partners purified
# [6] = molecular target: B3; experiment: as above; details: both partners purified
# [7] = molecular target: the molecule itself; experiment: native MS; single purified proteins in 200 mM ammonium acetate pH 6.8; collision energy 100 V
# [8] = molecular target: B2; experiment: fluorescence polarisation; fluorescence anisotropy; 10 nM FITC-labelled Idp3p peptide, serial dilutions of Pex5p variant 160 nM to 38 µM; 50 mM HEPES pH 7.5, 150 mM NaCl; one-site binding-saturation fit; details: both partners purified
molecule,measurement,setting,value
CC(C)C[C@H](NC(=O)[C@H](CCCCN)NC(=O)[C@H](C)NC(=O)[C@H](CCCCN)NC(=O)[C@H](CCCNC(=N)N)NC(=O)[C@H](CCCCN)NC(=O)[C@H](CC(N)=O)NC(=O)[C@H](CCC(=O)O)NC(=O)[C@H](CC(N)=O)NC(=O)[C@H](Cc1ccc(O)cc1)NC(=S)Nc1ccc2c(c1)C(=O)OC21c2ccc(O)cc2Oc2cc(O)ccc21)C(=O)O [Cat2p peptide] ({FITC}-YNENKRKAKL-OH),Kd,Pex5p^2D,897 nM
CC(C)C[C@H](NC(=O)[C@H](CCCNC(=N)N)NC(=O)[C@H](CO)NC(=O)[C@H](CO)NC(=O)[C@H](CCCNC(=N)N)NC(=O)[C@H](CCCCN)NC(=O)[C@@H](NC(=O)[C@H](CCCNC(=N)N)NC(=O)[C@H](C)NC(=O)[C@H](Cc1ccc(O)cc1)NC(=S)Nc1ccc2c(c1)C(=O)OC21c2ccc(O)cc2Oc2cc(O)ccc21)C(C)C)C(=O)O [Lys1p peptide] ({FITC}-YARVKRSSRL-OH),Kd,Pex5p^2D,3690 ± 1580 nM
B1,Kd,[1],17.4 nM
same,Kd,[2],338 nM
same,Kd,[3],271 nM
same,Kd,[4],13 nM
same,stoichiometry N,[5],1 Pcs60p per Pex5p (2:2 receptor-cargo complex) and 1 Pcs60p per Pex5p and 2 Pcs60p per Pex5p (1:2 receptor-cargo complex)
same,stoichiometry N,[6],1 Pcs60p per Pex5p and 2 Pcs60p per Pex5p (1:2 receptor-cargo complex) and 1 Pcs60p per Pex5p (2:2 receptor-cargo complex)
B2,stoichiometry N,[7],2
"{FITC}-YNEDKKGMCKL [Idp3p nonapeptide, FITC-YNEDKKGMCKL]",Kd,[8],5540 nM
B3,stoichiometry N,[7],2

# Reference: publication PMC9929924, “Phosphorylation of the receptor protein Pex5p modulates import of proteins into peroxisomes” (Biological Chemistry, 2022)
